According to US11618906B2, “Hydroxylation techniques” (HYPHA DISCOVERY LTD., priority 2018, dated 2023):

How the values were obtained:
Assay type in all cases: biochemical
[1] = Hydroxylation / de-N-ethylation of napropamide catalysed by cytochrome P450 aluC09 and mutants; settings: for Desethyl Napropamide (1.62 min) / Desethyl-hydroxy-Napropamide (1.41 min) / Hydroxy-Napropamide (1) (1.53 min) / Hydroxy-Napropamide (2), (1.52 min) / M-2Da (unidentified) (1.89 min) / Napropamide (substrate): % by UV peak area at 275 nm, 0.125 mg/ml substrate, 27° C., 16-20 hours; for Hydroxylated Ratio 2:1: napropamide, ratio of UV peak areas
Procedure: (§1) Lyophilised material of mutants of CYP450aluC09, ferredoxinaluF03 and ferredoxin reductaseSCF15A was made as described in examples 3 and 4 and suspended in water (0.5 mL per vial) and biocatalysis was performed at 27° C. in the following conditions: 50 mM potassium phosphate pH 7.4, 5 mM MgCl2, 0.125 mg/ml substrate compound such as diclofenac (Sigma-Aldrich, UK), Aceclofenac (Tokyo Chemical Industry UK Ltd, UK), Indomethacin (Sigma-Aldrich, UK), Flufenamic acid (Sigma-Aldrich, UK), Napropamide (Sigma-Aldrich, UK), celecoxib (LC Laboratories, USA), valsartan (Tokyo Chemical Industry UK Ltd, UK), ruxolitinib (LC Laboratories, USA), 4-pyrrolidylacetophenone (Sigma-Aldrich, UK), tofacitinib (LC Laboratories, USA), bosentan (CarboSynth Ltd, UK), buparvaquone (MedChemtronica, Sweden), BIRB796 (Stratech Scientific Limited, UK), epothilone B (LC Laboratories, USA), ritonavir (Tokyo Chemical Industry UK Ltd, UK) or tivantinib (MedChemtronica, Sweden), P450AluC09 (concentration as in Table 8), 5 mM G6P, 1 mM NADP, 2 UN/ml G6PDH in a final volume of 100 μL. After 16-20 hours at 200 rpm (5 cm orbital shaker, Kuhner AG, Switzerland), reactions were extracted with an equal volume of acetonitrile, centrifuged to remove precipitated proteins and conversion assessed by UPLC-MS analysis.
(§2) UPLC data was obtained as follows:
(§3) Column: Acquity UPLC BEH Shield RP18 1.7 μm 2.1 mm i.d. 50 mm length
(§4) Solvents: H2O, B: Acetonitrile, both with 0.1% Formic acid
(§5) Detector: Waters Acquity UPLC PDA (UV-Vis detection) and Waters Acquity UPLC QDA (MS)
Napropamide elutes at 1.76 minutes, unidentified metabolite (−2 Da) elutes at 1.90 minutes, desethyl-napropamide elutes at 1.62 minutes, hydroxy-napropamide 1 elutes at 1.53 minutes and hydroxy-napropamide 2 elutes at 1.52 minutes and the desethyl-hydroxy-napropamide product elutes at 1.41 minutes.

[2] = Hydroxylation of aceclofenac catalysed by cytochrome P450 aluC09 and mutants; settings: for Aceclofenac (Substrate) (1.80 mins) / Dihydroxy-Aceclofenac (1.42 mins) / Hydroxy-Aceclofenac (1) (1.64 min) / Hydroxy-Aceclofenac (2) (1.60 min): % by UV peak area at 275 nm, 0.125 mg/ml substrate, 27° C., 16-20 hours; for Hydroxylated Ratio 2:1: aceclofenac, ratio of UV peak areas at 275 nm
Procedure: as §1, §2, §3, §4, §5
Chromatograms are provided in FIGS. 5a-c; aceclofenac elutes at 1.80 minutes, hydroxy-aceclofenac acid 1 elutes at 1.64 minutes, hydroxy-aceclofenac acid 2 elutes at 1.60 minutes and dihydroxy-aceclofenac elutes at 1.42 minutes.

[3] = Hydroxylation of flufenamic acid catalysed by cytochrome P450 aluC09 and mutants; settings: for Flufenamic Acid (Substrate) 1.93 mins / Hydroxy-Flufenamic Acid (1) 1.69 mins / Hydroxy-Flufenamic Acid (2) 1.65 mins: % by UV peak area at 275 nm, 0.125 mg/ml substrate, 27° C., 16-20 hours; for Hydroxylated Ratio 1:2: flufenamic acid, ratio of UV peak areas at 275 nm
Procedure: as §1, §2, §3, §4, §5
Flufenamic acid elutes at 1.93 minutes, hydroxy-flufenamic acid 1 elutes at 1.68 minutes and hydroxy-flufenamic acid 2 elutes at 1.65 minutes.

[4] = Metabolism of 4-pyrrolidylacetophenone by P450 aluC09 and mutants; settings: percent of substrate being converted; 0.125 mg/ml, 27° C., 16-20 hours; [CYP] per enzyme as in Table 8
Procedure: as §1
(§6) However, of particular note when considering P450 concentration are the results for mutants M12, M20 and M34, as well as the deleterious impact on the range of substrate utility in mutants M39 and M40.

[5] = O-demethylation of indomethacin catalysed by cytochrome P450 aluC09 and mutants; settings: % by UV peak area at 275 nm; 0.125 mg/ml substrate, 27° C., 16-20 hours
Procedure: as §1, §2, §3, §4, §5

[6] = Metabolism of valsartan by P450 aluC09 and mutants; settings: percent of substrate being converted; 0.125 mg/ml, 27° C., 16-20 hours; [CYP] per enzyme as in Table 8
Procedure: as §1, §6

[7] = Metabolism of tofacitinib by P450 aluC09 and mutants; settings: percent of substrate being converted; 0.125 mg/ml, 27° C., 16-20 hours; [CYP] per enzyme as in Table 8
Procedure: as §1, §6

[8] = Metabolism of celecoxib by P450 aluC09 and mutants; settings: percent of substrate being converted; 0.125 mg/ml, 27° C., 16-20 hours; [CYP] per enzyme as in Table 8
Procedure: as §1, §6

[9] = Metabolism of bosentan by P450 aluC09 and mutants; settings: percent of substrate being converted; 0.125 mg/ml, 27° C., 16-20 hours; [CYP] per enzyme as in Table 8
Procedure: as §1, §6

[10] = Metabolism of ruxolitinib by P450 aluC09 and mutants; settings: percent of substrate being converted; 0.125 mg/ml, 27° C., 16-20 hours; [CYP] per enzyme as in Table 8
Procedure: as §1, §6

[11] = Metabolism of ritonavir by P450 aluC09 and mutants; settings: percent of substrate being converted; 0.125 mg/ml, 27° C., 16-20 hours; [CYP] per enzyme as in Table 8
Procedure: as §1, §6

[12] = Metabolism of tivantinib by P450 aluC09 and mutants; settings: percent of substrate being converted; 0.125 mg/ml, 27° C., 16-20 hours; [CYP] per enzyme as in Table 8
Procedure: as §1, §6

[13] = Metabolism of epothilone B by P450 aluC09 and mutants; settings: percent of substrate being converted; 0.125 mg/ml, 27° C., 16-20 hours; [CYP] per enzyme as in Table 8
Procedure: as §1, §6

[14] = Hydroxylation of diclofenac catalysed by cytochrome P450 aluC09 and mutants (UPLC-PDA-MS); settings: for 4′,5-dihydroxy-diclofenac 1.38 mins / 4′-hydroxy-diclofenac (1) 1.62 mins / 5-hydroxy-diclofenac (2) 1.58 mins / Diclofenac (Substrate) 1.81 mins: % by UV peak area at 275 nm, 0.125 mg/ml substrate, 27° C., 16-20 hours; for Hydroxylated Ratio hydroxy 1:hydroxy 2: diclofenac, ratio of UV peak areas at 275nm
Procedure: as §1, §2, §3, §4, §5
Illustrative results for the hydroxylation of diclofenac by CYP450aluC09 and selected T291x mutants are summarised below in Table 3 with representative chromatograms resented in FIG. 3a-c; retention times: diclofenac 1.85-1.88 minutes, 5-hydroxydiclofenac 1.60-1.63 minutes, 4′-hydroxydiclofenac 1.65-1.68 minutes, 4′,5-dihydroxydiclofenac 1.40-1.42 minutes. The chromatographic retention times and mass spectra coincided with those of authentic samples.

[15] = Metabolism of buparvaquone by P450 aluC09 and mutants; settings: percent of substrate being converted; 0.125 mg/ml, 27° C., 16-20 hours; [CYP] per enzyme as in Table 8
Procedure: as §1, §6

[16] = Metabolism of BIRB796 by P450 aluC09 and mutants; settings: percent of substrate being converted; 0.125 mg/ml, 27° C., 16-20 hours; [CYP] per enzyme as in Table 8
Procedure: as §1, §6

Row | Molecule | Desethyl Napropamide (1.62 min) [1] [%] | Desethyl-hydroxy-Napropamide (1.41 min) [1] [%] | Hydroxy-Napropamide (1) (1.53 min) [1] [%] | Hydroxy-Napropamide (2), (1.52 min) [1] [%] | M-2Da (unidentified) (1.89 min) [1] [%] | Napropamide (substrate) [1] [%] | Hydroxylated Ratio 2:1 [1] | Aceclofenac (Substrate) (1.80 mins) [2] [%] | Dihydroxy-Aceclofenac (1.42 mins) [2] [%] | Hydroxy-Aceclofenac (1) (1.64 min) [2] [%] | Hydroxy-Aceclofenac (2) (1.60 min) [2] [%] | Hydroxylated Ratio 2:1 [2] | Flufenamic Acid (Substrate) 1.93 mins [3] [%] | Hydroxy-Flufenamic Acid (1) 1.69 mins [3] [%] | Hydroxy-Flufenamic Acid (2) 1.65 mins [3] [%] | Hydroxylated Ratio 1:2 [3] | Indomethacin (1.74 mins) [5] [%] | O-demethyl-Indomethacin (1.52 mins) [5] [%] | % conversions (avg) Tofacitinib [7] [%] | % conversions (avg) Celecoxib [8] [%] | also measured
1 | aluC09M11: cytochrome P450 aluC09 mutant T291D; amino acid sequence SEQ ID NO: 8 (protein, listed as Amycolatopsis lurida) MTDVEETTATLPLARKCPFSPPPEYERLRRESPVSRVGLPSGQTAWALTRLEDIREMLSSPHFSSDRQSPSFPLMVARQIRREDKPFRPSLIAMDPPEHSRARRDVVGEFTVKRMKALQPRIQQIVDEHLDALLAGPKPADLVQALSLPVPSLVICELLGVPYSDHEFFQSCSSRMLSREVTAEERMTAFEQLENYLDELVTKKEANATEDDLLGRQILKQRETGEADHGELVGLAFLLLIAGHETTANMISLGTVTLLENPDQLAKIKADPGKTLAAIEELLRVFTIAEDATSRFATADVEIGGTLIRAGEGVVGLSNAGNHDPDGFENPDTFDIERGARHHVAFGFGVHQCLGQNLARLELQIVFDTLFRRVPGLRIAVPVDELPFKHDSTIYGLHALPVTW | 36.6 | 8.7 | 1.5 | 3.1 | 6.7 | 47.6 | 2.1 | 17.5 | 35.2 | 6.3 | 41.0 | 6.5 | 94.7 | 3.4 | 1.9 | 1.8 | 92.6 | 7.4 | 1.4 | 3.2 | % conversions (avg) 4-pyrrolidylacetophenone [4]: 21.4%; % conversions (avg) Valsartan [6]: 26%; % conversions (avg) Bosentan [9]: 100%; % conversions (avg) Ruxolitinib [10]: 35.7%; % conversions (avg) Ritonavir [11]: 57.3%; % conversions (avg) Tivantinib [12]: 34.2%; % conversions (avg) Epothilone B [13]: 8.5%; 4′,5-dihydroxy-diclofenac 1.38 mins [14]: 2.3%; 4′-hydroxy-diclofenac (1) 1.62 mins [14]: 25.3%; 5-hydroxy-diclofenac (2) 1.58 mins [14]: 25.1%; Diclofenac (Substrate) 1.81 mins [14]: 48.3%; Hydroxylated Ratio hydroxy 1:hydroxy 2 [14]: 1.0; % conversions (avg) Buparvaquone [15]: 15.8%
2 | aluC09M20: cytochrome P450 aluC09 mutant T291V; amino acid sequence SEQ ID NO: 28 (protein, listed as Amycolatopsis lurida) MTDVEETTATLPLARKCPFSPPPEYERLRRESPVSRVGLPSGQTAWALTRLEDIREMLSSPHFSSDRQSPSFPLMVARQIRREDKPFRPSLIAMDPPEHSRARRDVVGEFTVKRMKALQPRIQQIVDEHLDALLAGPKPADLVQALSLPVPSLVICELLGVPYSDHEFFQSCSSRMLSREVTAEERMTAFEQLENYLDELVTKKEANATEDDLLGRQILKQRETGEADHGELVGLAFLLLIAGHETTANMISLGTVTLLENPDQLAKIKADPGKTLAAIEELLRVFTIAEVATSRFATADVEIGGTLIRAGEGVVGLSNAGNHDPDGFENPDTFDIERGARHHVAFGFGVHQCLGQNLARLELQIVFDTLFRRVPGLRIAVPVDELPFKHDSTIYGLHALPVTW | 56.2 | 7.6 | 2.1 | 6.1 | 4.7 | 25.3 | 2.9 | 4.2 | 35.1 | 33.1 | 27.6 | 0.8 | 93.6 | 4.4 | 2.0 | 2.2 | 89.2 | 10.8 | 4.5 | 2.2 | % conversions (avg) BIRB796 [16]: 22.4%; % conversions (avg) Valsartan [6]: 13.1%; % conversions (avg) Ruxolitinib [10]: 70.7%; % conversions (avg) Ritonavir [11]: 100%; % conversions (avg) Tivantinib [12]: 22.2%; % conversions (avg) Epothilone B [13]: 21.1%; 4′,5-dihydroxy-diclofenac 1.38 mins [14]: 3.1%; 4′-hydroxy-diclofenac (1) 1.62 mins [14]: 50.1%; 5-hydroxy-diclofenac (2) 1.58 mins [14]: 13.7%; Diclofenac (Substrate) 1.81 mins [14]: 34.8%; Hydroxylated Ratio hydroxy 1:hydroxy 2 [14]: 3.7; % conversions (avg) Buparvaquone [15]: 15.4%
3 | aluC09M19: cytochrome P450 aluC09 mutant T291A; amino acid sequence SEQ ID NO: 24 (protein, listed as Amycolatopsis lurida) MTDVEETTATLPLARKCPFSPPPEYERLRRESPVSRVGLPSGQTAWALTRLEDIREMLSSPHFSSDRQSPSFPLMVARQIRREDKPFRPSLIAMDPPEHSRARRDVVGEFTVKRMKALQPRIQQIVDEHLDALLAGPKPADLVQALSLPVPSLVICELLGVPYSDHEFFQSCSSRMLSREVTAEERMTAFEQLENYLDELVTKKEANATEDDLLGRQILKQRETGEADHGELVGLAFLLLIAGHETTANMISLGTVTLLENPDQLAKIKADPGKTLAAIEELLRVFTIAEAATSRFATADVEIGGTLIRAGEGVVGLSNAGNHDPDGFENPDTFDIERGARHHVAFGFGVHQCLGQNLARLELQIVFDTLFRRVPGLRIAVPVDELPFKHDSTIYGLHALPVTW | 50.1 | 4.9 | 2.3 | 3.9 | 6.1 | 34.3 | 1.7 | 6.7 | 48.3 | 6.5 | 38.5 | 5.9 | 90.4 | 5.8 | 3.8 | 1.5 | 93.5 | 6.5 | 0 | 4.5 | % conversions (avg) BIRB796 [16]: 16.6%; % conversions (avg) 4-pyrrolidylacetophenone [4]: 0.7%; % conversions (avg) Ruxolitinib [10]: 50.8%; % conversions (avg) Ritonavir [11]: 65.4%; % conversions (avg) Tivantinib [12]: 26.1%; % conversions (avg) Epothilone B [13]: 4.5%; 4′,5-dihydroxy-diclofenac 1.38 mins [14]: 2.4%; 4′-hydroxy-diclofenac (1) 1.62 mins [14]: 50.0%; 5-hydroxy-diclofenac (2) 1.58 mins [14]: 14.2%; Diclofenac (Substrate) 1.81 mins [14]: 34.8%; Hydroxylated Ratio hydroxy 1:hydroxy 2 [14]: 3.5; % conversions (avg) Buparvaquone [15]: 17.1%
